For three molecules, binding result and binding signal results are on record in PMC5558906.

Like-named read-outs stand apart in the source and are kept apart here.

Common to all, as to assay: EMSA
On the technique in general: Mobility shift assays separate free from complexed probe on a gel.

In data set [1] the target is T1, eIF4G1 (Saccharomyces cerevisiae, UniProt P39935 1-952).
T1 sequence: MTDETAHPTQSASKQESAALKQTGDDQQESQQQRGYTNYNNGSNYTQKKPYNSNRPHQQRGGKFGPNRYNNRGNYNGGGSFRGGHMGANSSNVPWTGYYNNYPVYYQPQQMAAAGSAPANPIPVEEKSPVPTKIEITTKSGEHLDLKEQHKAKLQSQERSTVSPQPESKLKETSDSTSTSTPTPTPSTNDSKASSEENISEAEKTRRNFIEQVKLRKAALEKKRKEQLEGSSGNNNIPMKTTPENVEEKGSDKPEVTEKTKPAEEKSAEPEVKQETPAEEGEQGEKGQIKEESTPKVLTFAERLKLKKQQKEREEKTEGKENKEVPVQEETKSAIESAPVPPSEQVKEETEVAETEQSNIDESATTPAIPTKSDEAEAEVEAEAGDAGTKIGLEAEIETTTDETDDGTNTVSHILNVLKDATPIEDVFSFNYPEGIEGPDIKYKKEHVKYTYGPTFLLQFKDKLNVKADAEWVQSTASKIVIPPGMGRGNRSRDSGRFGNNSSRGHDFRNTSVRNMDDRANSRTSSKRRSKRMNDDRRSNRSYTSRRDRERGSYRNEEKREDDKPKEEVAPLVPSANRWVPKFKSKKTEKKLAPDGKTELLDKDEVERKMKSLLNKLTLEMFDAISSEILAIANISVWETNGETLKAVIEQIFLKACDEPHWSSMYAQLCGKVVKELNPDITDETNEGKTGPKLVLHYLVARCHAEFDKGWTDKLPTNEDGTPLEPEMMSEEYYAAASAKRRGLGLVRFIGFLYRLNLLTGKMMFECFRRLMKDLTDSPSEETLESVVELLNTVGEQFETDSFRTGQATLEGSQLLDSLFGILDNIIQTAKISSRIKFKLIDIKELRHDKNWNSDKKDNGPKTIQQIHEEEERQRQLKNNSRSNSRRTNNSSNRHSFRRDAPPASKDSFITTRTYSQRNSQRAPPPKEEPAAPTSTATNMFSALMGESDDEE

Data set [2] deals with T1, eIF4G1. The source holds these as a separate data set.
For data set [3], the target named is T1, eIF4G1. The source holds these as a separate data set.

B1: U10 in CA repeats (ssRNA)
RNA: GCACACACACACACACACACAUUUUUUUUUUCACACACACACACACACACA
B1: the binding result with eIF4G1 [1] is given as “binds”.

B2: A40 (ssRNA)
RNA: AAAAAAAAAAAAAAAAAAAAAAAAAAAAAAAAAAAAAAAA
As to B2, the binding signal with eIF4G1 [2] came to 17 fold weaker than U40.

B3: U40 (ssRNA)
RNA: UUUUUUUUUUUUUUUUUUUUUUUUUUUUUUUUUUUUUUUU
On to B3, for which the binding signal in the data set with eIF4G1 [3] is 17 fold tighter than A40.
